In doi:10.1101/243014, “RNA-binding proteins with mixed charge domains self-assemble and aggregate in Alzheimer’s Disease” (bioRxiv, 2018):
“And” between values parts separate entries of the source, which are not always exact repeats. Equal entries are not always repeated.

B1: LC1 domain (residues 231–308) of rU1-70K (domain or fragment, UniProt P08621 231-308, looked up)
chain: RDRDRDRERERRERSRERDKERERRRSRSRDRRRRSRSRDKEERRRSRERSKDKDRDRKRRSSRSRERARRERERKEE
notes: The GST carrier was kept in BN-PAGE (~65 kDa on SDS-PAGE); also called LC1 alone; mixed charge LC1 domain; source: HEK293, transfected, in lysate
B2: N-terminal domain (residues 1–99) of rU1-70K (domain or fragment, UniProt P08621 1-99, looked up)
chain: MTQFLPPNLLALFAPRDPIPYLPPLEKLPHEKHHNQPYCGIAPYIREFEDPRDAPPPTRAETREERMERKRREKIERRQQEVETELKMWDPHNDPNAQG
notes: U1-70K residues 1-99 (N-terminus); The GST carrier was kept in BN-PAGE (~65 kDa on SDS-PAGE); also called N-terminus (1–99 residues) alone; source: HEK293, transfected, in lysate

Target: the molecule itself
Experiment: native gel or EMSA; blue native PAGE (3-12% NativePAGE Bis-Tris) of 0.8 ug purified protein in loading buffer with 50 mM TCEP, 30 min at room temperature; Coomassie and western blot with Myc antibodies

Protein	stoichiometry N
B1	2 and 3 and 4
B2	2
